Assay results as given in article PMC10786891, “Massively parallel profiling of RNA-targeting CRISPR-Cas13d”.

T1: EsCas13d, nuclease-dead (Eubacterium siraeum, UniProt B0MS50, R295A;H300A;R849A;H854A)
T1 sequence: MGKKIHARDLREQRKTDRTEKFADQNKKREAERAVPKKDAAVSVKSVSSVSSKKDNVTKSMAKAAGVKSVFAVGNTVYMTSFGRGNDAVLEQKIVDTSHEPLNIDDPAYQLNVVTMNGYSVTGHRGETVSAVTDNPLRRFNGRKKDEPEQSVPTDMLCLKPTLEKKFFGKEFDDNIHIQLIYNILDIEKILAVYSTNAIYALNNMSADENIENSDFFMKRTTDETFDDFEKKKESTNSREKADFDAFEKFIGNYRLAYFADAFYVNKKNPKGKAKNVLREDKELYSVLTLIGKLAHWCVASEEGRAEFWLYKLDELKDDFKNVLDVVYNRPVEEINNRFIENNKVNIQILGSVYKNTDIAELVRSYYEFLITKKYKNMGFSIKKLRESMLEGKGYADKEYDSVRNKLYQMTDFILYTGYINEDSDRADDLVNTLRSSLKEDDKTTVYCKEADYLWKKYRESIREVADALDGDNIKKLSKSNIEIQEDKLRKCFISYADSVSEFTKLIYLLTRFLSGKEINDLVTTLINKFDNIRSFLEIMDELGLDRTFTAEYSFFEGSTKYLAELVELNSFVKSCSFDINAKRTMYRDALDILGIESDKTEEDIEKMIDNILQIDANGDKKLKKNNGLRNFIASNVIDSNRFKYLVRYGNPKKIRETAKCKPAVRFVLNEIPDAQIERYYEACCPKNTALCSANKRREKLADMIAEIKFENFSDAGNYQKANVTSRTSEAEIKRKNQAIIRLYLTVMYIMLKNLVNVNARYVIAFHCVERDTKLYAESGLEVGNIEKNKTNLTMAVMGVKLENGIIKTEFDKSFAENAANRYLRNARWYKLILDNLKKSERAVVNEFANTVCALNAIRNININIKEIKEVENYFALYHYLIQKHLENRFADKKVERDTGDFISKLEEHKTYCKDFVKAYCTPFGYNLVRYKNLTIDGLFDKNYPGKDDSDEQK

B1: target 2 MT 5'PFS CUG 3'PFS AGU (mixed)
RNA 1: CACCCGUGCAAAAUUGCAGGGGUCUAAAACCUUCUCCAAAUUGUUUCAUCCU
RNA 2: GGGAAUGGAUCCACAUCUACGAAUUCCUGAGGAUGAAACAAUUUGGAGAAGAGUAGAUCGGAAGAGCACACGU
B2: target 2 MT 5'PFS UUG 3'PFS AUA (mixed)
RNA 1: CACCCGUGCAAAAUUGCAGGGGUCUAAAACCUUCUCCAAAUUGUUUCAUCCU
RNA 2: GGGAAUGGAUCCACAUCUACGAAUUCUUGAGGAUGAAACAAUUUGGAGAAGAUAAGAUCGGAAGAGCACACGU
B3: target 2 MT 5'PFS CGA 3'PFS ACG (mixed)
RNA 1: CACCCGUGCAAAAUUGCAGGGGUCUAAAACCUUCUCCAAAUUGUUUCAUCCU
RNA 2: GGGAAUGGAUCCACAUCUACGAAUUCCGAAGGAUGAAACAAUUUGGAGAAGACGAGAUCGGAAGAGCACACGU
B4: target 2 MT 5'PFS AUA 3'PFS AAU (mixed)
RNA 1: CACCCGUGCAAAAUUGCAGGGGUCUAAAACCUUCUCCAAAUUGUUUCAUCCU
RNA 2: GGGAAUGGAUCCACAUCUACGAAUUCAUAAGGAUGAAACAAUUUGGAGAAGAAUAGAUCGGAAGAGCACACGU
B5: target 2 MT 5'PFS AUA 3'PFS AAG (mixed)
RNA 1: CACCCGUGCAAAAUUGCAGGGGUCUAAAACCUUCUCCAAAUUGUUUCAUCCU
RNA 2: GGGAAUGGAUCCACAUCUACGAAUUCAUAAGGAUGAAACAAUUUGGAGAAGAAGAGAUCGGAAGAGCACACGU
B6: target 2 MT 5'PFS GUC 3'PFS CAG (mixed)
RNA 1: CACCCGUGCAAAAUUGCAGGGGUCUAAAACCUUCUCCAAAUUGUUUCAUCCU
RNA 2: GGGAAUGGAUCCACAUCUACGAAUUCGUCAGGAUGAAACAAUUUGGAGAAGCAGAGAUCGGAAGAGCACACGU
B7: target 2 MT 5'PFS GUC 3'PFS ACU (mixed)
RNA 1: CACCCGUGCAAAAUUGCAGGGGUCUAAAACCUUCUCCAAAUUGUUUCAUCCU
RNA 2: GGGAAUGGAUCCACAUCUACGAAUUCGUCAGGAUGAAACAAUUUGGAGAAGACUAGAUCGGAAGAGCACACGU
B8: target 2 MT 5'PFS AUA 3'PFS AAC (mixed)
RNA 1: CACCCGUGCAAAAUUGCAGGGGUCUAAAACCUUCUCCAAAUUGUUUCAUCCU
RNA 2: GGGAAUGGAUCCACAUCUACGAAUUCAUAAGGAUGAAACAAUUUGGAGAAGAACAGAUCGGAAGAGCACACGU
B9: target 2 MT 5'PFS GUC 3'PFS ACC (mixed)
RNA 1: CACCCGUGCAAAAUUGCAGGGGUCUAAAACCUUCUCCAAAUUGUUUCAUCCU
RNA 2: GGGAAUGGAUCCACAUCUACGAAUUCGUCAGGAUGAAACAAUUUGGAGAAGACCAGAUCGGAAGAGCACACGU
B10: target 2 MT 5'PFS CGA 3'PFS ACC (mixed)
RNA 1: CACCCGUGCAAAAUUGCAGGGGUCUAAAACCUUCUCCAAAUUGUUUCAUCCU
RNA 2: GGGAAUGGAUCCACAUCUACGAAUUCCGAAGGAUGAAACAAUUUGGAGAAGACCAGAUCGGAAGAGCACACGU
B11: target 2 MT 5'PFS AUA 3'PFS AAA (mixed)
RNA 1: CACCCGUGCAAAAUUGCAGGGGUCUAAAACCUUCUCCAAAUUGUUUCAUCCU
RNA 2: GGGAAUGGAUCCACAUCUACGAAUUCAUAAGGAUGAAACAAUUUGGAGAAGAAAAGAUCGGAAGAGCACACGU
B12: target 2 MT 5'PFS GUC 3'PFS CAA (mixed)
RNA 1: CACCCGUGCAAAAUUGCAGGGGUCUAAAACCUUCUCCAAAUUGUUUCAUCCU
RNA 2: GGGAAUGGAUCCACAUCUACGAAUUCGUCAGGAUGAAACAAUUUGGAGAAGCAAAGAUCGGAAGAGCACACGU
B13: target 2 MT 5'PFS AUG 3'PFS AAU (mixed)
RNA 1: CACCCGUGCAAAAUUGCAGGGGUCUAAAACCUUCUCCAAAUUGUUUCAUCCU
RNA 2: GGGAAUGGAUCCACAUCUACGAAUUCAUGAGGAUGAAACAAUUUGGAGAAGAAUAGAUCGGAAGAGCACACGU
B14: target 2 MT 5'PFS GCA 3'PFS CCA (mixed)
RNA 1: CACCCGUGCAAAAUUGCAGGGGUCUAAAACCUUCUCCAAAUUGUUUCAUCCU
RNA 2: GGGAAUGGAUCCACAUCUACGAAUUCGCAAGGAUGAAACAAUUUGGAGAAGCCAAGAUCGGAAGAGCACACGU
B15: target 2 MT 5'PFS UUG 3'PFS CUU (mixed)
RNA 1: CACCCGUGCAAAAUUGCAGGGGUCUAAAACCUUCUCCAAAUUGUUUCAUCCU
RNA 2: GGGAAUGGAUCCACAUCUACGAAUUCUUGAGGAUGAAACAAUUUGGAGAAGCUUAGAUCGGAAGAGCACACGU
B16: target 2 MT 5'PFS GUC 3'PFS CAC (mixed)
RNA 1: CACCCGUGCAAAAUUGCAGGGGUCUAAAACCUUCUCCAAAUUGUUUCAUCCU
RNA 2: GGGAAUGGAUCCACAUCUACGAAUUCGUCAGGAUGAAACAAUUUGGAGAAGCACAGAUCGGAAGAGCACACGU
B17: target 2 MT 5'PFS GUC 3'PFS ACG (mixed)
RNA 1: CACCCGUGCAAAAUUGCAGGGGUCUAAAACCUUCUCCAAAUUGUUUCAUCCU
RNA 2: GGGAAUGGAUCCACAUCUACGAAUUCGUCAGGAUGAAACAAUUUGGAGAAGACGAGAUCGGAAGAGCACACGU
B18: target 2 MT 5'PFS GUC 3'PFS ACA (mixed)
RNA 1: CACCCGUGCAAAAUUGCAGGGGUCUAAAACCUUCUCCAAAUUGUUUCAUCCU
RNA 2: GGGAAUGGAUCCACAUCUACGAAUUCGUCAGGAUGAAACAAUUUGGAGAAGACAAGAUCGGAAGAGCACACGU
B19: target 2 MT 5'PFS CGA 3'PFS ACA (mixed)
RNA 1: CACCCGUGCAAAAUUGCAGGGGUCUAAAACCUUCUCCAAAUUGUUUCAUCCU
RNA 2: GGGAAUGGAUCCACAUCUACGAAUUCCGAAGGAUGAAACAAUUUGGAGAAGACAAGAUCGGAAGAGCACACGU
B20: target 2 MT 5'PFS UUU 3'PFS CUU (mixed)
RNA 1: CACCCGUGCAAAAUUGCAGGGGUCUAAAACCUUCUCCAAAUUGUUUCAUCCU
RNA 2: GGGAAUGGAUCCACAUCUACGAAUUCUUUAGGAUGAAACAAUUUGGAGAAGCUUAGAUCGGAAGAGCACACGU
B21: target 2 MT 5'PFS UUG 3'PFS AUC (mixed)
RNA 1: CACCCGUGCAAAAUUGCAGGGGUCUAAAACCUUCUCCAAAUUGUUUCAUCCU
RNA 2: GGGAAUGGAUCCACAUCUACGAAUUCUUGAGGAUGAAACAAUUUGGAGAAGAUCAGAUCGGAAGAGCACACGU
B22: target 2 MT 5'PFS UUG 3'PFS AUU (mixed)
RNA 1: CACCCGUGCAAAAUUGCAGGGGUCUAAAACCUUCUCCAAAUUGUUUCAUCCU
RNA 2: GGGAAUGGAUCCACAUCUACGAAUUCUUGAGGAUGAAACAAUUUGGAGAAGAUUAGAUCGGAAGAGCACACGU
B23: target 2 MT 5'PFS UUG 3'PFS AUG (mixed)
RNA 1: CACCCGUGCAAAAUUGCAGGGGUCUAAAACCUUCUCCAAAUUGUUUCAUCCU
RNA 2: GGGAAUGGAUCCACAUCUACGAAUUCUUGAGGAUGAAACAAUUUGGAGAAGAUGAGAUCGGAAGAGCACACGU
B24: target 2 MT 5'PFS GCA 3'PFS CCG (mixed)
RNA 1: CACCCGUGCAAAAUUGCAGGGGUCUAAAACCUUCUCCAAAUUGUUUCAUCCU
RNA 2: GGGAAUGGAUCCACAUCUACGAAUUCGCAAGGAUGAAACAAUUUGGAGAAGCCGAGAUCGGAAGAGCACACGU
B25: target 2 MT 5'PFS UGU 3'PFS AAC (mixed)
RNA 1: CACCCGUGCAAAAUUGCAGGGGUCUAAAACCUUCUCCAAAUUGUUUCAUCCU
RNA 2: GGGAAUGGAUCCACAUCUACGAAUUCUGUAGGAUGAAACAAUUUGGAGAAGAACAGAUCGGAAGAGCACACGU
B26: target 1 A14G,C22U (mixed)
RNA 1: CACCCGUGCAAAAAUGCAGGGGUCUAAAACUGAGCGGAUAACCUCUCUAUGG
RNA 2: GGGAAUGGAUCCACAUCUACGAAUUCGUAUCAUAGAGGGGUUAUCCGCUCACCGAGAUCGGAAGAGCACACGU
B27: target 1 U3A,G13A (mixed)
RNA 1: CACCCGUGCAAAAAUGCAGGGGUCUAAAACUGAGCGGAUAACCUCUCUAUGG
RNA 2: GGGAAUGGAUCCACAUCUACGAAUUCGUACCAUAGAGAAGUUAUCCGCACACCGAGAUCGGAAGAGCACACGU
B28: target 1 C6U,A20U (mixed)
RNA 1: CACCCGUGCAAAAAUGCAGGGGUCUAAAACUGAGCGGAUAACCUCUCUAUGG
RNA 2: GGGAAUGGAUCCACAUCUACGAAUUCGUACCUUAGAGAGGUUAUCUGCUCACCGAGAUCGGAAGAGCACACGU

Target: T1, EsCas13d, nuclease-dead
Assay: crRNA (strand 1, pre-loaded); Mg2+; 40 mM Tris-HCl pH 7.5, 150 mM NaCl, 6 mM MgCl2, 1 mM DTT, 0.1% Tween-20, 0.2 mg/ml BSA; 25 C; 10 min per concentration, then washed
Conditions: tags: His6-TwinStrep-SUMO cleaved; N-terminal SNAP kept (SNAP-Surface 488); label: 3' end held by stalled T7 RNA polymerase

In order of falling Kd:
1. B26  ~49 nM
2. B10  ~38 nM
3. B28  35 ± 5 nM
4. B9  28 ± 6 nM
5. B14  ~27 nM
6. B25  24 ± 7 nM
7. B7  20.5 ± 2.1 nM
8. B18  18.5 ± 2.7 nM
9. B6  17.9 ± 2.4 nM
10. B17  16.1 ± 1.3 nM
11. B15  15.9 ± 2.1 nM
12. B21  14.1 ± 1.3 nM
13. B16  13.4 ± 2.5 nM
14. B23  13.1 ± 1.5 nM
15. B22  11.9 ± 1 nM
16. B19  10.8 ± 2.6 nM
17. B24  10.3 ± 1.4 nM
18. B12  9.8 ± 1.7 nM
19. B2  9.4 ± 0.8 nM
20. B20  8.9 ± 0.8 nM
21. B4  8.6 ± 1.4 nM
22. B27  7.7 ± 0.5 nM
23. B13  7.6 ± 1 nM
24. B3  6.9 ± 1 nM
25. B5  5.9 ± 1.4 nM
26. B8  5.2 ± 0.9 nM
27. B11  5 ± 0.8 nM
28. B1  3.7 ± 0.6 nM
